Here are results for 2 substances from patent US20090221985A1, “SYSTEM FOR IONTOPHORETIC TRANSDERMAL DELIVERY OF POLYMERIC AGENTS AND METHODS OF USE THEREOF” (priority 2005, published 2009).

Holding throughout (format): in vitro ADME
The nature of series [1]: Iontophoretic delivery of collagen through intact (untreated) pig ear skin piece, Bradford assay. The note with it: untreated 1.5 mm pig ear skin; 15V DC, 0.1 mA, 30 min; collected in 5 min intervals (FIGS. 3 and 4). The procedure:
Measurements were performed on collagen delivery through a 1.5 mm thick pig ear skin. The skin piece was obtained by slicing with scalpel a 1.5 mm thick section of a pig ear and fixed it over a 2 cm diameter laboratory vial. The vial was filled with a 50 ml solution of 0.05% NaCl in water to contact with the skin piece.
The experiment was performed by measuring the amount of collagen transmitted through the skin piece into the vial's solution by iontophoresis.
(§1) Collagen (100 mg/ml; Sigma) was dissolved in 10 mM sodium phosphate pH 8 containing 150 mM NaCl or in 10 mM sodium phosphate pH 8 containing 150 mM NaCl to which 10 mM glutamic acid solution was added (0.2 ml of glutamic acid were added to 1 ml of collagen to yield pH 4.0), and the glutamic acid solution was incubated at room temperature for 1 hour. Thus, positively charged collagen was driven into the skin by the positive electrode and negatively charged collagen was driven by the negative electrode. The amount of collagen transmitted through the skin was measured by the Bradford assay (Bradford M. M. Anal Biochem. 72, 248-254, 1976).
The experiments were performed at a 15V DC applied voltage and at a current of 0.1 mA for 30 min.
The amount of collagen collected in 5 min intervals was measured by the Bradford reagent.

Series [2] can be described thus: Iontophoretic delivery of collagen through pig ear skin treated by chemical microporation, Bradford assay. The note with it: Silver Nitrite microporated skin, 15V, 1 h. The procedure:
as §1
Pig ear skin piece was treated by chemical microporation using Silver Nitrite and then iontophoresis of collagen was performed as follows:
Twenty ml reservoir was mounted over the skin piece allowing its wetting (FIG. 5). Iontophoretic transmission experiment using the same solutions as described in Example 1 herein above was performed on each sample. Electrodes were placed in the upper and lower reservoirs. At the end of the experiment the amount of collagen transmitted through the skin was measured by the Bradford assay (Bradford M. M. Anal Biochem. 72, 248-254, 1976). The iontophoresis was performed under the following conditions: 1. Distance between electrodes (upper and lower reservoir)—2 cm;

Series [3] is described as follows: Iontophoretic delivery of hyaluronic acid (with BSA) through pig ear skin treated by chemical microporation. The note with it: Silver Nitrite microporated skin, iontophoresis as in Example 1. As to the method: Bovine serum albumin (BSA; Sigma) was dissolved in 10 mM sodium phosphate pH 7.2 containing 0.15 M NaCl to yield BSA concentration of 10 mg/ml. Hyaluronic acid suspension (1 mg; Q-Med) was incubated with 0.1 ml of the BSA solution at 40° C. In addition, 0.1 ml glutamic acid (10 mM) was added to another sample of the hyaluronic acid-BSA solution to yield pH 4.0. Piece of a pig ear skin was exposed to chemical microporation using Silver Nitrite and then iontophoretic delivery of the complex was performed as described in Example 1 herein above.
Hyaluronic acid transmitted through the pig ear was stained by complexation with a copper phtalocyanin dye and measured by the Bradford reagent.

For Collagen, the “collagen transmitted through the skin piece by iontophoresis” value in series [1] is “iontophoretically transmitted through the piece of pig ear skin”. Further, the “Transmitted amount” value is on record as 0.04 mg in series [2] (initial amount 0.1 mg); 0.3 mg in series [2] (initial amount 0.5 mg); 0.48 mg in series [2] (initial amount 1.0 mg); 5.6 mg in series [2] (initial amount 10.0 mg); 11.0 mg in series [2] (initial amount 20.0 mg). Moreover, the “Transmitted amount (%)” value in series [2] (initial amount 0.1 mg) is listed as 40%; in series [2] (initial amount 0.5 mg), 60%; in series [2] (initial amount 1.0 mg), 48%; in series [2] (initial amount 10.0 mg), 56%; in series [2] (initial amount 20.0 mg) it was 55%.
On to Hyaluronic acid, for which the “Transmitted amount” value was found to be 0.007 mg in series [3] (initial amount 0.01 mg), 0.030 mg in series [3] (initial amount 0.05 mg) and 0.046 mg in series [3] (initial amount 0.1 mg). The “Transmitted amount (%)” value in series [3] (initial amount 0.01 mg) turned out to be 70%; in series [3] (initial amount 0.05 mg), 60%; in series [3] (initial amount 0.1 mg), 46%.
